From patent US20040219615 come the findings set out here.

The data set deals with RAP-2 (RIP-associated protein-2), full-length.
Chain of RAP-2 (RIP-associated protein-2), full-length (chain, as listed by the source): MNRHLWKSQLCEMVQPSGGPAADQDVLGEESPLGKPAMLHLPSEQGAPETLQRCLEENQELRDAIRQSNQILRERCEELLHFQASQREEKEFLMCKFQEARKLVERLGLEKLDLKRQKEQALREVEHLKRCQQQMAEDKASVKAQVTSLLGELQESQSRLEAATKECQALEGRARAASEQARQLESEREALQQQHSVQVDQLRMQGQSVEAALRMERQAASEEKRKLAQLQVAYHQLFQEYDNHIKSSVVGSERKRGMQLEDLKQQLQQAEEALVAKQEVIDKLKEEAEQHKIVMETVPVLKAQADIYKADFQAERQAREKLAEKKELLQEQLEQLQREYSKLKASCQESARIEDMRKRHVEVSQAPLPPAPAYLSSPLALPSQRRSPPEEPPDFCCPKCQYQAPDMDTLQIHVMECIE

B1: RIP (receptor interacting protein) (protein)
chain: MQPDMSLNVIKMKSSDFLESAELDSGGFGKVSLCFHRTQGLMIMKTVYKGPNCIEHNEALLEEAKMMNRLRHSRVVKLLGVIIEEGKYSLVMEYMEKGNLMHVLKAEMSTPLSVKGRIILEIIEGMCYLHGKGVIHKDLKPENILVDNDFHIKIADLGLASFKMWSKLNNEEHNELREVDGTAKKNGGTLYYMAPEHLNDVNAKPTEKSDVYSFAVVLWAIFANKEPYENAICEQQLIMCIKSGNRPDVDDITEYCPREIISLMKLCWEANPEARPTFPGIEEKFRPFYLSQLEESVEEDVKSLKKEYSNENAVVKRMQSLQLDCVAVPSSRSNSATEQPGSLHSSQGLGMGPVEESWFAPSLEHPQEENEPSLQSKLQDEANYHLYGSRMDRQTKQQPRQNVAYNREEERRRRVSHDPFAQQRPYENFQNTEGKGTAYSSAASHGNAVHQPSGLTSQPQVLYQNNGLYSSHGFGTRPLDPGTAGPRVWYRPIPSHMPSLHNIPVPETNYLGNTPTMPFSSLPPTDESIKYTIYNSTGIQIGAYNYMEIGGTSSSLLDSTNTNFKEEPAAKYQAIFDNTTSLTDKHLDPIRENLGKHWKNCARKLGFTQSQIDEIDHDYERDGLKEKVYQMLQKWVMREGIKGATVGKLAQALHQCSRIDLLSSLIYVSQN
As to B1, the “in vitro immunocomplex kinase assay” value is listed as “over-expressed RIP did not phosphorylate RAP-2”.

B2: IKK1 (protein)
chain: MERPPGLRPGAGGPWEMRERLGTGGFGNVCLYQHRELDLKIAIKSCRLELSTKNRERWCHEIQIMKKLNHANVVKACDVPEELNILIHDVPLLAMEYCSGGDLRKLLNKPENCCGLKESQILSLLSDIGSGIRYLHENKIIHRDLKPENIVLQDVGGKIIHKIIDLGYAKDVDQGSLCTSFVGTLQYLAPELFENKPYTATVDYWSFGTMVFECIAGYRPFLHHLQPFTWHEKIKKKDPKCIFACEEMSGEVRFSSHLPQPNSLCSLVVEPMENWLQLMLNWDPQQRGGPVDLTLKQPRCFVLMDHILNLKIVHILNMTSAKIISFLLPPDESLHSLQSRIERETGINTGSQELLSETGISLDPRKPASQCVLDGVRGCDSYMVYLFDKSKTVYEGPFASRSLSDCVNYIVQDSKIQLPIIQLRKVWAEAVHYVSGLKEDYSRLFQGQRAAMLSLLRYNANLTKMKNTLISASQQLKAKLEFFHKSIQLDLERYSEQMTYGISSEKMLKAWKEMEEKAIHYAEVGVIGYLEDQIMSLHAEIMELQKSPYGRRQGDLMESLEQRAIDLYKQLKHRPSDHSYSDSTEMVKIIVHTVQSQDRVLKELFGHLSKLLGCKQKIIDLLPKVEVALSNIKEADNTVMFMQGKRQKEIWHLLKIACTQSSARSLVGSSLEGAVTPQTSAWLPPTSAEHDHSLSCVVTPQDGETSAQMIEENLNCLGHLSTIIHEANEEQGNSMMNLDWSWLTE
In the case of B2, the “in vitro phosphorylation of the immunoprecipitated complex” value was “RAP-2 becomes phosphorylated”.
